Assay results: US20170355766A1 (Xencor, published 2017)
Residue numbers refer to the chain shown, from its start. Numbers in names are those of the source. Where two headings read alike, the source gives them in different places.

B1: anti-CD19 WT IgG1 antibody (HuAM4G7 Fv, native human IgG1 Fc) (antibody)
heavy: not shown
light: DIVMTQSPATLSLSPGERATLSCRSSKSLQNVNGNTYLYWFQQKPGQSPQLLIYRMSNLNSGVPDRFSGSGSGTEFTLTISSLEPEDFAVYYCMQHLEYPITFGAGTKLEIKRTVAAPSVFIFPPSDEQLKSGTASVVCLLNNFYPREAKVQWKVDNALQSGNSQESVTEQDSKDSTYSLSSTLTLSKADYEKHKVYACEVTHQGLSSPVTKSFNRGEC
notes: Parent of the Fc variants; also called anti-CD19-IgG1; anti-CD19 IgG1 WT; copies: 2 + 2
B2: anti-CD19 antibody HuAM4G7 IgG1 Fc variant S267E (antibody)
heavy: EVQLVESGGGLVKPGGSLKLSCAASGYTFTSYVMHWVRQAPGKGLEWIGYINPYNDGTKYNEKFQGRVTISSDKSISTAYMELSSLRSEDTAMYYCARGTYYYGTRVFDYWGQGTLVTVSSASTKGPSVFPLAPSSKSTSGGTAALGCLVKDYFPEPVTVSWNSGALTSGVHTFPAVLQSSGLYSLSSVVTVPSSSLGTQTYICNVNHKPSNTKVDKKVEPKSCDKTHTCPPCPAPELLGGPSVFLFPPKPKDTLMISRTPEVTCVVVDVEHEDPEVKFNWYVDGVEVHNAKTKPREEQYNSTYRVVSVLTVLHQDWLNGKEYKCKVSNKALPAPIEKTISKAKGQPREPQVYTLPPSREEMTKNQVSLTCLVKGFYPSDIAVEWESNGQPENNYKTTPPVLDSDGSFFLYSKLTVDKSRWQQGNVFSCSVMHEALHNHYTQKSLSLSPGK
light: B1 light
notes: Positions are EU numbers, not positions on the UniProt entry; copies: 2 + 2
B3: ^236R/L328R (antibody, human IgG1, kappa)
heavy: EVQLVESGGGLVKPGGSLKLSCAASGYTFTSYVMHWVRQAPGKGLEWIGYINPYNDGTKYNEKFQGRVTISSDKSISTAYMELSSLRSEDTAMYYCARGTYYYGTRVFDYWGQGTLVTVSSASTKGPSVFPLAPSSKSTSGGTAALGCLVKDYFPEPVTVSWNSGALTSGVHTFPAVLQSSGLYSLSSVVTVPSSSLGTQTYICNVNHKPSNTKVDKKVEPKSCDKTHTCPPCPAPELLGRGPSVFLFPPKPKDTLMISRTPEVTCVVVDVSHEDPEVKFNWYVDGVEVHNAKTKPREEQYNSTYRVVSVLTVLHQDWLNGKEYKCKVSNKARPAPIEKTISKAKGQPREPQVYTLPPSREEMTKNQVSLTCLVKGFYPSDIAVEWESNGQPENNYKTTPPVLDSDGSFFLYSKLTVDKSRWQQGNVFSCSVMHEALHNHYTQKSLSLSPGK
light: B1 light
notes: HuAM4G7 IgG1 Fc variant; also called Fc-KO; FcγR knockout
B4: G236D (antibody, human IgG1, kappa)
heavy: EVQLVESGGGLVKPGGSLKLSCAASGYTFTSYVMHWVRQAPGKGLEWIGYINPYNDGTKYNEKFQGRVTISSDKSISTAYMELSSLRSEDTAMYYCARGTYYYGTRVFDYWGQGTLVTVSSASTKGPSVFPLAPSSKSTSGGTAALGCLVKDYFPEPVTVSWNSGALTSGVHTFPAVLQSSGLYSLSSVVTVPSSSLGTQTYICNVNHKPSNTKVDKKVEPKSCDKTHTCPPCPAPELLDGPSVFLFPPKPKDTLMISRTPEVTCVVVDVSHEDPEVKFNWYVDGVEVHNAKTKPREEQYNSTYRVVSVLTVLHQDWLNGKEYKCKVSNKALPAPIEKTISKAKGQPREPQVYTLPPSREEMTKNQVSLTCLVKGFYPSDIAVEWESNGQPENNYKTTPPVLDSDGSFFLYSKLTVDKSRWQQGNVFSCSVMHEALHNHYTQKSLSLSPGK
light: B1 light
notes: HuAM4G7 IgG1 Fc variant
B5: G236R/L328R (antibody, human IgG1, kappa)
heavy: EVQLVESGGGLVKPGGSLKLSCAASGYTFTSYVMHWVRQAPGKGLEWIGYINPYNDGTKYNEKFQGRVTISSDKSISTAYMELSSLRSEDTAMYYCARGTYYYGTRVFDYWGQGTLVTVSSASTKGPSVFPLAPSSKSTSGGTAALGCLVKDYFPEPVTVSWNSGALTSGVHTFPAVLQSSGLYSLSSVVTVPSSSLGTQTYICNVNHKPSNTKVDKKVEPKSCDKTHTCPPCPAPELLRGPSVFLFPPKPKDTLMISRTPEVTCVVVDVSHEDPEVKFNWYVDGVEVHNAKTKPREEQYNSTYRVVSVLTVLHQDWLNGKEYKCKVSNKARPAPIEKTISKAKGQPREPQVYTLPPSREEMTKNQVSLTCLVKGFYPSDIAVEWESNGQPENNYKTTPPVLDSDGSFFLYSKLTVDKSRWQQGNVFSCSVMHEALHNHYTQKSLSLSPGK
light: B1 light
notes: as for B3
B6: anti-CD19 antibody S267E/L328F (HuAM4G7 Fv, human IgG1 Fc with S267E/L328F) (antibody)
heavy: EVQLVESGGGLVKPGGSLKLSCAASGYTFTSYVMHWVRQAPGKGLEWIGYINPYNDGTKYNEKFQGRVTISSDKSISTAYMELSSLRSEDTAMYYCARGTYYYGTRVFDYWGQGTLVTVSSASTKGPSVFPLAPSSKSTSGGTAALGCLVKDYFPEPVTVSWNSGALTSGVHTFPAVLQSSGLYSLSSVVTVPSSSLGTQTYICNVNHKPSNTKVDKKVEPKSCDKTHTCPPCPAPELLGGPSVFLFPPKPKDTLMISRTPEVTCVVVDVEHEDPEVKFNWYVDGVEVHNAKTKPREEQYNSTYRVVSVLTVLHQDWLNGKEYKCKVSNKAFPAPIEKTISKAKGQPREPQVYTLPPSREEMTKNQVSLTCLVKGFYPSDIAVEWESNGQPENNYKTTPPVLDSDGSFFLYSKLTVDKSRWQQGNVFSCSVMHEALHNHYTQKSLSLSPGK
light: B1 light
notes: They are treated here as one molecule; also called anti-CD19-S267E/L328F; a-CD19 S267E/L328F; copies: 2 + 2
B7: anti-CD19 antibody HuAM4G7 IgG1 Fc variant L235Y/S267E (antibody)
heavy: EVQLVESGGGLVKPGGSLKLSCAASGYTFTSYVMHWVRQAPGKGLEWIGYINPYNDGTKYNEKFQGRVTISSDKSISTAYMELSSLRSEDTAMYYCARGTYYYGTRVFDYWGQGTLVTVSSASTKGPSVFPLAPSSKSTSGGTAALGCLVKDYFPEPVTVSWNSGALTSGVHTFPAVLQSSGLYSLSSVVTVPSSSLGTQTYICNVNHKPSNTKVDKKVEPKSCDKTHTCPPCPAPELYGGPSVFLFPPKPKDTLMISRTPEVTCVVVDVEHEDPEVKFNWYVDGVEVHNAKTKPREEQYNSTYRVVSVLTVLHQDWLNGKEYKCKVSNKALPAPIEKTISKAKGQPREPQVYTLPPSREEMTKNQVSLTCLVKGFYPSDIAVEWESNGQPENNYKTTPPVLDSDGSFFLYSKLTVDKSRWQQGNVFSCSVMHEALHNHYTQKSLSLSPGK
light: B1 light
notes: as for B2
B8: anti-CD19 antibody HuAM4G7 IgG1 Fc variant S267E/H268E (antibody)
heavy: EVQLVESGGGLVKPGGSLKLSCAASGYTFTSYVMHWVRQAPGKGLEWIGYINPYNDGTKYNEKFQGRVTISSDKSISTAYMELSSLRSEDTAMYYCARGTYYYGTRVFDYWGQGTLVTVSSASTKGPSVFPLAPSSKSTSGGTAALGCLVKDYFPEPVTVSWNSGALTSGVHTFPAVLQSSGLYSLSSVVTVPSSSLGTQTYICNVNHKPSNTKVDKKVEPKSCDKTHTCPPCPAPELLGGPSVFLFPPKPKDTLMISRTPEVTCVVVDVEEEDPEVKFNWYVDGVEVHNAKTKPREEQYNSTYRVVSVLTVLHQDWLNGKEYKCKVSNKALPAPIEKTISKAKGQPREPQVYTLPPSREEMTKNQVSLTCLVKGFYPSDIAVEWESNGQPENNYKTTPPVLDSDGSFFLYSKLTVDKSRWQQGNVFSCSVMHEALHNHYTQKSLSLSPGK
light: B1 light
notes: Positions are EU numbers, not positions on the UniProt entry; also called H268E/S267E; copies: 2 + 2
B9: S239D (antibody, human IgG1, kappa)
heavy: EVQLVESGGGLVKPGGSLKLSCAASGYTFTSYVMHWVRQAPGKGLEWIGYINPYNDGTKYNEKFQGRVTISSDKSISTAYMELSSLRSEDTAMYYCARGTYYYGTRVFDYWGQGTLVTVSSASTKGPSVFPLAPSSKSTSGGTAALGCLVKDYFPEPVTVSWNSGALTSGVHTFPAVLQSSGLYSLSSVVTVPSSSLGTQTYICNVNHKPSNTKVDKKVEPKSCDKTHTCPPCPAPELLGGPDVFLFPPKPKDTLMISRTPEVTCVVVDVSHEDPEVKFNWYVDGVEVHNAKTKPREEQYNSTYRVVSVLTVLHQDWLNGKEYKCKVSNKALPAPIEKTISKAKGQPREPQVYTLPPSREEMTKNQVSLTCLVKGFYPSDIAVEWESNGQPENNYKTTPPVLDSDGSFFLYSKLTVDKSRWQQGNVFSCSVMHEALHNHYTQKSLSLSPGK
light: B1 light
notes: HuAM4G7 IgG1 Fc variant
B10: S267E/A327E (antibody, human IgG1, kappa)
heavy: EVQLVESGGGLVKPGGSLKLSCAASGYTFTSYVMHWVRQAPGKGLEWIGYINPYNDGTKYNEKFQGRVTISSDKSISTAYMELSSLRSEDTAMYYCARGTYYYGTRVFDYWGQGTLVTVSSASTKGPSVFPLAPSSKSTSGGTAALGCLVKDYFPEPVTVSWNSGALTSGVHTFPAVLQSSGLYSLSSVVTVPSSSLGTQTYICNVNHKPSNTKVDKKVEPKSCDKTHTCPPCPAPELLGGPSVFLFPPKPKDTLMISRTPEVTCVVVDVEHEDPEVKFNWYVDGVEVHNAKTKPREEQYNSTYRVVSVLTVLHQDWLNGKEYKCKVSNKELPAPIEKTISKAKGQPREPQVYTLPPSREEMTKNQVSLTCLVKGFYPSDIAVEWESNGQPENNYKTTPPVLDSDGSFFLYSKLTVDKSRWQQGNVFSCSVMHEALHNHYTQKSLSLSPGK
light: B1 light
notes: HuAM4G7 IgG1 Fc variant
B11: V266M/S267E (antibody, human IgG1, kappa)
heavy: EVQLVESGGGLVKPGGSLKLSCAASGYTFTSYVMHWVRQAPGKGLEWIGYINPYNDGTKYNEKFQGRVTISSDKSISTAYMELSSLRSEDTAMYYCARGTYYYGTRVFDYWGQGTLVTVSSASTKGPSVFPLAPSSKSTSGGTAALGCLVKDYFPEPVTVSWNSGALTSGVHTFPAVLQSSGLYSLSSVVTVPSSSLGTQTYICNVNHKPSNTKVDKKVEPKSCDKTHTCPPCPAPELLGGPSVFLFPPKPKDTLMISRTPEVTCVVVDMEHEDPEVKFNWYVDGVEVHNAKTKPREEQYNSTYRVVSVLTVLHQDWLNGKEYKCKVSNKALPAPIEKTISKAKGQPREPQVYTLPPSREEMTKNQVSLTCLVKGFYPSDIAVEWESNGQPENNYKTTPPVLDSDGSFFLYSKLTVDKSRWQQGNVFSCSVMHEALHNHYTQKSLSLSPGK
light: B1 light
notes: HuAM4G7 IgG1 Fc variant

How the values were obtained:
[1] = molecular target: T1, human V158 FcγRIIIa receptor protein (6xHis and GST tags) (human, UniProt P08637 17-208, limits assumed); experiment: SPR (Biacore)
T1 construct: also called VIIIa
T1 sequence (P08637 17-208 F176V limits assumed): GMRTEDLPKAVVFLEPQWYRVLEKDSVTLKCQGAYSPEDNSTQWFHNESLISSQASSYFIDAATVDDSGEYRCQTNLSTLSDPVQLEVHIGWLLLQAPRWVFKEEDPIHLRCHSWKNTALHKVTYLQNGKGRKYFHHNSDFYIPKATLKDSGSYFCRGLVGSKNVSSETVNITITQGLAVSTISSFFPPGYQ

[2] = molecular target: T2, human FcγRIIb receptor protein (R&D Systems) (human, UniProt P31994 46-217); experiment: SPR (Biacore)
T2 construct: Analyte injected over antibodies captured on a protein A/G chip (Biacore); also called CD32b
T2 sequence (looked up): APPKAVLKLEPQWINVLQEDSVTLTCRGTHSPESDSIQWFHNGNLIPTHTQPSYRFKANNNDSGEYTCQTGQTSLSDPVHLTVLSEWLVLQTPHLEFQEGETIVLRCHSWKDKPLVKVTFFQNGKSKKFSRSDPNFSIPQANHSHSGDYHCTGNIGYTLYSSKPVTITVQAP

FcγRIIaR = molecular target: T3, FcγRIIaR (human, UniProt P12318); experiment: SPR (Biacore)
T3 construct: recombinant receptor protein with 6xHis and GST tags; also called R131 FcγRIIa
T3 sequence (receptor, looked up): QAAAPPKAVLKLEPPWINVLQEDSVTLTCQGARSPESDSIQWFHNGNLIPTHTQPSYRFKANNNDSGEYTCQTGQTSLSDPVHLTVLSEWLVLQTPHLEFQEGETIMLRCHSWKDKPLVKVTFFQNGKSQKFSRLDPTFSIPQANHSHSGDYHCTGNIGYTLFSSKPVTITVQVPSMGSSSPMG

[3] = molecular target: T4, human FcγRI receptor protein (R&D Systems) (human, UniProt P12314 16-288); experiment: SPR (Biacore)
T4 construct: also called CD64
T4 sequence (P12314 16-288 limits assumed): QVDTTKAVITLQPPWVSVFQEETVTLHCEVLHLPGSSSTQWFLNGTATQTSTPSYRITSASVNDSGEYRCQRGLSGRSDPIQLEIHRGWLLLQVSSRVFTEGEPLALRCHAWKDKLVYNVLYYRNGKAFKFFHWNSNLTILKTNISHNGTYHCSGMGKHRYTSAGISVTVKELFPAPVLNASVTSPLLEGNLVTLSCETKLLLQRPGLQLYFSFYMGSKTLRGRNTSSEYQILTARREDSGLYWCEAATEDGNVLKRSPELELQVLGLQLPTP

[4] = molecular target: T5, human H131 FcγRIIa receptor protein (6xHis and GST tags) (human, UniProt P12318 34-217, limits assumed); experiment: SPR (Biacore)
T5 construct: also called HIIa
T5 sequence (looked up): T3 sequence (receptor, looked up) with R134H

[5] = molecular target: T2, human FcγRIIb receptor protein (R&D …); experiment: Biacore SPR ('according to the data herein')
Experimental: (§1) Variants were screened for receptor affinity using Biacore™ technology, also referred to as Biacore herein, a surface plasmon resonance (SPR) based technology for studying biomolecular interactions in real time. SPR measurements were performed using a Biacore 3000 instrument (Biacore, Piscataway, N.J.). A protein A/G (Pierce Biotechnology) CM5 biosensor chip (Biacore) was generated using a standard primary amine coupling protocol. All measurements were performed using HBS-EP buffer (10 mM HEPES pH 7.4, 0.15 M NaCl, 3 mM EDTA, 0.005% vol/vol surfactant P20, Biacore). Antibodies at 20 nM or 50 nM in HBS-EP buffer were immobilized on the protein A/G surface and FcγRs were injected. After each cycle, the surface was regenerated by injecting glycine buffer (10 mM, pH 1.5). Data were processed by zeroing time and response before the injection of FcγR and by subtracting appropriate nonspecific signals (response of reference channel and injection of running buffer). Kinetic analyses were performed by global fitting of binding data with a 1:1 Langmuir binding model using BIAevaluation software (Biacore).

[6] = molecular target: T6, human FcγRIIb on the cell surface (HEK293T cells transfected with human FcγRIIb cDNA; primary human B cells) (human, UniProt P31994 43-310); experiment: flow cytometry on FcγRIIb-transfected HEK293T cells
T6 chain: T2 sequence (looked up)

[7] = molecular target: T6, human FcγRIIb on the cell surface …; experiment: as above
FcγRIIIaF = molecular target: T7, FcγRIIIaF (human, UniProt P08637); experiment: SPR (Biacore)
T7 construct: recombinant receptor protein with 6xHis and GST tags; also called F158 FcγRIIIa
T7 sequence (P08637 17-208 limits assumed): as the sequence (P08637 17-208 F176V limits assumed) above, with V160F counted along it

[8] = molecular target: T2, human FcγRIIb receptor protein (R&D …); experiment: Biacore SPR, antibody captured on protein A/G, FcγR injected
Experimental: as §1

[9] = molecular target: T6, human FcγRIIb on the cell surface …; experiment: flow cytometry on HEK293T cells transfected with human FcγRIIb, PE anti-human Fab detection
[10] = molecular target: T6, human FcγRIIb on the cell surface …; experiment: flow cytometry on FcγRIIb-transfected HEK293T cells

Row | Binder | Fold FcγRIIIaV [1] | Fold FcγRIIb [2] | Fold FcγRIIaR (FcγRIIaR) | Fold FcγRI [3] | Fold FcγRIIaH [4] | EC50 (read off the curve) [7] | also measured
1 | B1 | 1 fold | 1 fold | 1 fold | 1 fold | 1 fold |  | Kd [5]: ~1500 nM
2 | B2 | 0.381 fold | 20.4 fold | 29.5 fold | 2.81 fold |  | ~30 ng/mL | EC50 (read off the curve) [6]: ~20 ng/mL
3 | B3 |  |  |  |  |  |  | binding result [1]: no binding; binding result [2]: no binding; binding result (FcγRIIIaF): no binding; binding result (FcγRIIaR): no binding; binding result [3]: no binding; binding result [4]: no binding
4 | B4 |  | 1.54 fold | 0.758 fold | 0.0211 fold | 0.167 fold |  | binding result [1]: no binding; binding result (FcγRIIIaF): no binding
5 | B5 |  |  |  |  |  |  | binding result [1]: no binding; binding result [2]: no binding; binding result (FcγRIIIaF): no binding; binding result (FcγRIIaR): no binding; binding result [3]: no binding; binding result [4]: no binding
6 | B6 | 0.038 fold | 242 fold | 275 fold | 1.5 fold |  |  | improvement in affinity relative to WT IgG1 [8]: > 2 orders of magnitude; fold EC50 relative to WT IgG1 [9]: ~320 fold
7 | B7 |  | 37.2 fold | 37.5 fold | 0.00347 fold | 0.941 fold |  | EC50 (read off the curve) [10]: ~6 ng/mL
8 | B8 | 3.15 fold | 40.6 fold | 41.7 fold | 3.52 fold |  | ~10 ng/mL | 
9 | B9 | 8.14 fold | 3.6 fold | 3.73 fold | 3.53 fold | 1.1 fold |  | Fold FcγRIIIaF (FcγRIIIaF): 6.32 fold
10 | B10 |  | 30.9 fold | 29.3 fold | 2.3 fold |  | ~10 ng/mL | 
11 | B11 | 0.0448 fold | 29.2 fold | 30.7 fold | 1.98 fold |  | ~10 ng/mL | 
